Substrate in series [1]: CC(C)(OO)c1ccccc1
The series can be described thus: hydroperoxide removal, FOX1 (xylenol orange) assay, Michaelis-Menten. Conditions: 0.5 mM NADPH and FNR as electron donor system, 50 mM sodium phosphate pH 6.0, 50°C, anaerobic. In kind it is biochemical, Hydrogenobacter thermophilus.

Substrate in series [2]: CC(C)(C)OO
The series is described as above. It counts as biochemical, Hydrogenobacter thermophilus. The following applies: 0.5 mM NADPH and FNR as electron donor system, 50 mM sodium phosphate pH 6.0, 50°C, anaerobic.

What is called Km is the concentration of substrate that gives half-maximal velocity.

B1: ferriperoxin (Fpx) (Hydrogenobacter thermophilus TK-6) (protein)
chain: MKSLAGTKTLECLKHAFAGESQANRRYLYFARKADIEGYPDIANVFRETAEGETGHAFGHLEFLEKYGGGDPATGKPIGSMEQNLEAAIAGETYEYTEMYPGFAKTAREEGFDDIAEWFETLARAEKSHAGRFQKALESLKA
notes: full-length untagged (own start and stop codon, pET21c NdeI-HindIII), E. coli BL21(DE3); N-terminus MKSLAGTKTL; diiron holoprotein
For B1, the Km stood at 1.1 ± 0.2 mM in series [1] and 1.3 ± 0.3 mM in series [2].
